Experimental data as given in PMC10511499.

Target: human dynein complex, wild type (tagged IC2C with the dynein subunits of 293 cells) (told two ways: 'Rat IC2C' (methods), human (results, legend) | human (endogenous in Flp-In T-REx 293 cells)) (UniProt Q14204)
Assay: TIRF microscopy microtubule recruitment assay; mammalian proteins; dynein or DDB on biotin-microtubules, SRP90 assay buffer with 2 mM AMP-PNP, 10 min; apparent affinity

human dynactin p150-CC1 (residues 224-554) (from UniProt Q14203-1 224-554) (domain or fragment)
fold greater apparent affinity than Ndel1: 6 fold
